Experimental findings from PMC8262854 are described below.

Data set [1] has as its target Du172.17 gp140.664.R4 Env trimer (HIV-1 Du172.17 (clade C)). The data set can be described thus: crystal structure.

The stoichiometry N is the number of molecules, sites or subunits per partner or assembly.

Read-outs that look alike come from different tables or passages of the source.

“BG505.T332N Env (pseudovirus glycan hole mutant P291T): P291T (glycan site added at N289)”: where the note is “N-glycosylation at N289”, the other entry is on record as “decreases”.
As for “BG505.T332N Env (pseudovirus glycan hole mutant S241N): S241N (glycan site added)”, the other result (N-glycosylation at N241) is “decreases”.
“BG505.T332N Env (pseudovirus glycan hole mutant T465N): T465N (glycan site added)”: the other result (N-glycosylation at N465) is “decreases”.
In turn, “Du172.17 gp140.664.R4 Env trimer (complex)” returned a stoichiometry N in data set [1] of 3.
